For assay [1], the target named is T1, WT SARS-CoV-2 spike S1 subunit (SARS-CoV-2, UniProt P0DTC2 16-685). As to the kind of experiment: bio-layer interferometry (BLI, Octet), monovalent Fab affinity.
Assay [2] deals with T1, WT SARS-CoV-2 spike S1 subunit. As to the kind of experiment: BLI (Octet), Fab, monovalent.
Assay [3] deals with SARS-CoV spike S1 subunit (SARS-CoV, UniProt P59594 14-667). In words: BLI (Octet), Fab, monovalent.

Positions count from the first letter of the chain named.

B1: ADI-58125 (Fab, V domains shown)
VH: EVQLVESGGGLVKPGGSLRLSCAASGFTFSSYYMNWVRQAPGKGLEWVSSISEDGYSTYYPDSLKGRFTISRDSAKNSLYLQMNSLRADDTAVYYCARDFSGHTAWAGTGFEYWGQGTLVTVSS
VL: QSVLTQPPSVSGAPGQRITISCTGSSSNIGAGYDVHWYQQLPGTAPKLLIYGSSSRNSGVPDRFSGSKSGTSASLAITGLQAEDEADYYCQSYDSSLSVLYTFGTGTKVTVLG
Take B1: the Kd in assay [1] was found to be 0.6 nM.

B2: VYD222 Fab (Fab, V domains shown)
VH: B1 VH with S30G, Y33E, S101G, H103D, E112T
VL: QSVLTQPPSVSGAPGQRITISCTGSSSNIGAGYDVHWYQQLPGTAPKLLIYGSSSRNYGVPDRFSGSKSGTSASLAITGLQAEDEADYYCQSYDSDLGVLYTFGTGTKVTVL
Regarding B2, the equilibrium dissociation constant (Kd) in assay [2] stood at 2.14 nM; in assay [3], 0.478 nM.

Source of the values: patent US20260078171A1 (INVIVYD, published 2026).
